# In publication PMC10397247:
# T1: 4H1222-bN
# T1 chain: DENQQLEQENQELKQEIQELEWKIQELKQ
# T2: 4H1338-bN
# T2 chain: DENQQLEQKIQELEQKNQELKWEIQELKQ
# T3: 4H1348-bN
# T3 chain: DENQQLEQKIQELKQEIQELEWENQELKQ
# T4: 4H1359-bN
# T4 chain: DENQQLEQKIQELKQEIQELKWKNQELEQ
# T5: 4H1373-bN
# T5 chain: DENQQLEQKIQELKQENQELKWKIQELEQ
# T6: 4H1393-bN
# T6 chain: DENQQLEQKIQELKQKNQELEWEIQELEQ
# T7: 4H1449-bN
# T7 chain: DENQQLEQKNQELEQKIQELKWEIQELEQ
# T8: 4H1544-bN
# T8 chain: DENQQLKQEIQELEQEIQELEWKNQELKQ
# T9: 4H1629-bN
# T9 chain: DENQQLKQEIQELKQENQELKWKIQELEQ
# T10: 4H1710-bN
# T10 chain: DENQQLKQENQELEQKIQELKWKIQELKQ
# T11: 4H1804-bN
# T11 chain: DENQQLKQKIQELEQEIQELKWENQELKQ
# T12: 4H1899-bN
# T12 chain: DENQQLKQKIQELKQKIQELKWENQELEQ
# T13: 4H1985-bN
# T13 chain: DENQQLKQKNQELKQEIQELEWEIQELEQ
# T14: 4H3129-bN
# T14 chain: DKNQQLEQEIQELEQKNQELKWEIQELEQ
# T15: 4H3172-bN
# T15 chain: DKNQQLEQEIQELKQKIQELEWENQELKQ
# T16: 4H3414-bN
# T16 chain: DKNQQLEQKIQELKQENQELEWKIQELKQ
# T17: 4H3613-bN
# T17 chain: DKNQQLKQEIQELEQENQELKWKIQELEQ
# T18: 4H3628-bN
# T18 chain: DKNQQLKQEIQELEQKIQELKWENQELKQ
# T19: 4H363-bN
# T19 chain: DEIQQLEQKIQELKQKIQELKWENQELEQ
# T20: 4H3631-bN
# T20 chain: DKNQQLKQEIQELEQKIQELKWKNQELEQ
# T21: 4H3638-bN
# T21 chain: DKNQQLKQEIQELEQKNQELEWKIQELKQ
# T22: 4H3817-bA
# T22 chain: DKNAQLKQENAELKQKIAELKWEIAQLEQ
# T23: 4H3817-bN
# T23 chain: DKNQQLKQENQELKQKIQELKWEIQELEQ
# T24: 4H3858-bN
# T24 chain: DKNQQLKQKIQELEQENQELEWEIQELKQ
# T25: 4H3926-bN
# T25 chain: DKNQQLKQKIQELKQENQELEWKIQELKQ
# T26: 4H3974-bN
# T26 chain: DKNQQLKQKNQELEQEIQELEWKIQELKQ
# T27: 4H570-bN
# T27 chain: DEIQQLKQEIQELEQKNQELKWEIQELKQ
# T28: 4H584-bN
# T28 chain: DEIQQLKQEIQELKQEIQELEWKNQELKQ
# T29: 4H619-bN
# T29 chain: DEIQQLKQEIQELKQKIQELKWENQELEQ
# T30: 4H850-bN
# T30 chain: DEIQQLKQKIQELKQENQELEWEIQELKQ
# T31: 4H906-bN
# T31 chain: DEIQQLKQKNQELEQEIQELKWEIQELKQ
# T32: O9-bH
# T32 chain: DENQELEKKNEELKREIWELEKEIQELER
# Legend:
# Assay in all cases: two-hybrid library CCNG1;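 note: natural log of median RNA to DNA barcode read ratio; higher means stronger binding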
# [1] = biological target: T1, 4H1222-bN
# [2] = biological target: T2, 4H1338-bN
# [3] = biological target: T3, 4H1348-bN
# [4] = biological target: T4, 4H1359-bN
# [5] = biological target: T5, 4H1373-bN
# [6] = biological target: T6, 4H1393-bN
# [7] = biological target: T7, 4H1449-bN
# [8] = biological target: T8, 4H1544-bN
# [9] = biological target: T9, 4H1629-bN
# [10] = biological target: T10, 4H1710-bN
# [11] = biological target: T11, 4H1804-bN
# [12] = biological target: T12, 4H1899-bN
# [13] = biological target: T13, 4H1985-bN
# [14] = biological target: T14, 4H3129-bN
# [15] = biological target: T15, 4H3172-bN
# [16] = biological target: T16, 4H3414-bN
# [17] = biological target: T17, 4H3613-bN
# [18] = biological target: T18, 4H3628-bN
# [19] = biological target: T19, 4H363-bN
# [20] = biological target: T20, 4H3631-bN
# [21] = biological target: T21, 4H3638-bN
# [22] = biological target: T22, 4H3817-bA
# [23] = biological target: T23, 4H3817-bN
# [24] = biological target: T24, 4H3858-bN
# [25] = biological target: T25, 4H3926-bN
# [26] = biological target: T26, 4H3974-bN
# [27] = biological target: T27, 4H570-bN
# [28] = biological target: T28, 4H584-bN
# [29] = biological target: T29, 4H619-bN
# [30] = biological target: T30, 4H850-bN
# [31] = biological target: T31, 4H906-bN
# [32] = biological target: T32, O9-bH
binder,measurement,setting,value
DENQQLEQENQELKQEIQELEWKIQELKQ [4H1222-bN],interaction score,[1],-1.63
same,interaction score,[2],0.344
same,interaction score,[3],-2.2
same,interaction score,[4],0.554
same,interaction score,[5],-0.0597
same,interaction score,[6],-0.718
same,interaction score,[7],-0.277
same,interaction score,[8],-1.38
same,interaction score,[9],0.612
same,interaction score,[10],0.715
same,interaction score,[11],0.407
same,interaction score,[12],-0.657
same,interaction score,[13],-2.04
same,interaction score,[14],-0.201
same,interaction score,[15],-0.0903
same,interaction score,[16],0.105
same,interaction score,[17],0.482
same,interaction score,[18],-0.764
same,interaction score,[19],-0.189
same,interaction score,[20],0.357
same,interaction score,[21],0.921
same,interaction score,[22],1.4
same,interaction score,[23],2.15
same,interaction score,[24],-0.767
same,interaction score,[25],0.755
same,interaction score,[26],-0.957
same,interaction score,[27],-0.0662
same,interaction score,[28],-0.959
same,interaction score,[29],-0.785
same,interaction score,[30],0.741
same,interaction score,[31],-1.3
same,interaction score,[32],1.11
